Numbering of substitutions follows the chain as printed. Like-named read-outs stand apart in the source and are kept apart here.
How the values were obtained:
[1] = system: H019 Phi29 DNA polymerase Y224K,E239G,V250I,L253A,E375A,A437G,A484E,E508R,D510K,K512Y,E515Q,D570M (Bacillus phage phi29?); conditions: conversion of modified dNTPs; 5 mM Mg(OAc)2
[2] = system: H022 Phi29 DNA polymerase Y224K,E239G,V250I,L253A,E375Y,K379S,A437G,A484E,E508R,D510K,K512Y,E515Q,D570M (Bacillus phage phi29?); conditions: conversion of modified dNTPs; 5 mM Mg(OAc)2
[3] = system: H020 Phi29 DNA polymerase Y224K,E239G,V250I,L253A,E375S,A437G,A484E,E508R,D510K,K512Y,E515Q,D570M (Bacillus phage phi29?); conditions: conversion of modified dNTPs; 5 mM Mg(OAc)2
[4] = system: H034 Phi29 DNA polymerase K143D,Y224K,E239G,V250I,L253A,E375Y,A437G,A484E,E508R,D510K,K512Y,E515Q,D570M (Bacillus phage phi29?); conditions: conversion of modified dNTPs; 5 mM Mg(OAc)2
[5] = system: H004 Phi29 DNA polymerase Y224K,E239G,V250I,L253A,E375Y,A437G,A484E,E508R,D510K,K512Y,E515Q,D570M (Bacillus phage phi29?); conditions: conversion of modified dNTPs; 100 pM primer/template, 300 pM protein, 5 mM Mg(OAc)2, 10 mM DTT, 30 min; Table 5 gives 19.9%
[6] = molecular target: T1, tsH039' Phi29 DNA polymerase (Y148L, sso7d fusion) (Bacillus phage phi29?) (UniProt P03680); conditions: template aligned length, single molecule sequencing
T1 sequence: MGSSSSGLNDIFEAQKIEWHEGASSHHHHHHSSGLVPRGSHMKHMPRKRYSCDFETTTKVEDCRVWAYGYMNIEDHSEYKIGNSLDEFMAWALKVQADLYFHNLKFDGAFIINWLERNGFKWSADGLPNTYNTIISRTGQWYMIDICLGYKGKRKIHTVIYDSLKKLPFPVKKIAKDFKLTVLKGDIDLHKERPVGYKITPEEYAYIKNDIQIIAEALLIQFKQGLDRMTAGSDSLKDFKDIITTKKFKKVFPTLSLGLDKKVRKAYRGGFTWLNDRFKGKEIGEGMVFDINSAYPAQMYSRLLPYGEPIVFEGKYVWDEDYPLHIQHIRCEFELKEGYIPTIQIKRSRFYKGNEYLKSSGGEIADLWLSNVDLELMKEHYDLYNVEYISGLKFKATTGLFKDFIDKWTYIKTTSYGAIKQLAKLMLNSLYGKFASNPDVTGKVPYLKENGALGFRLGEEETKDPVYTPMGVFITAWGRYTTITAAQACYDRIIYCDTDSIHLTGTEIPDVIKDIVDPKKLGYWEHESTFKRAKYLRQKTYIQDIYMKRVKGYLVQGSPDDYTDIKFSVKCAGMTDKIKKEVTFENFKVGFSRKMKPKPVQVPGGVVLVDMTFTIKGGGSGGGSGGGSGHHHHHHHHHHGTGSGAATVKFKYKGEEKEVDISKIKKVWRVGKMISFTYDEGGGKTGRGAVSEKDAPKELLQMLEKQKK

[7] = molecular target: T2, tsH034' Phi29 DNA polymerase (K143D, sso7d fusion) (Bacillus phage phi29?) (UniProt P03680); conditions: template aligned length, single molecule sequencing
T2 sequence: T1 sequence with K184D, L189Y

[8] = molecular target: T3, tsH042' Phi29 DNA polymerase (K143S, sso7d fusion) (Bacillus phage phi29?) (UniProt P03680); conditions: template aligned length, single molecule sequencing
T3 sequence: T1 sequence with K184S, L189Y

[9] = system: G059 Phi29 DNA polymerase E14I E14I (Bacillus phage phi29?); experiment: cleavage_in_vitro; conditions: RCA +++
[10] = system: G087 Phi29 DNA polymerase Y148L Y148L (Bacillus phage phi29?); experiment: cleavage_in_vitro; conditions: RCA +++
[11] = system: H019 Phi29 DNA polymerase Y224K,E239G,V250I,L253A,E375A,A437G,A484E,E508R,D510K,K512Y,E515Q,D570M (Bacillus phage phi29?); experiment: cleavage_in_vitro; conditions: RCA ++++
[12] = system: H022 Phi29 DNA polymerase Y224K,E239G,V250I,L253A,E375Y,K379S,A437G,A484E,E508R,D510K,K512Y,E515Q,D570M (Bacillus phage phi29?); experiment: cleavage_in_vitro; conditions: RCA ++++
[13] = system: H004 Phi29 DNA polymerase Y224K,E239G,V250I,L253A,E375Y,A437G,A484E,E508R,D510K,K512Y,E515Q,D570M (Bacillus phage phi29?); experiment: cleavage_in_vitro; conditions: primer hydrolysed in 2 min
[14] = system: G075 Phi29 DNA polymerase K143D K143D (Bacillus phage phi29?); experiment: cleavage_in_vitro; conditions: RCA +++
[15] = system: H020 Phi29 DNA polymerase Y224K,E239G,V250I,L253A,E375S,A437G,A484E,E508R,D510K,K512Y,E515Q,D570M (Bacillus phage phi29?); experiment: cleavage_in_vitro; conditions: RCA ++++
[16] = system: G077 Phi29 DNA polymerase D145A D145A (Bacillus phage phi29?); experiment: cleavage_in_vitro; conditions: RCA +++

“primer/template (modified dNTP conversion)” gave an activity [1] of 22.2%, an activity [2] of 32.5% and an activity [3] of 46.2%. The activity [4] was 5.4% and the activity [5] was 48.4%.

“circular DNA template with primer (single molecule sequencing)” was tested, and the activity [6] was 436 bases, the activity [7] was 282 bases and the activity [8] was 342 bases.

“fluorescent-labelled primer (exonuclease substrate)” gave an activity [9] of 52.6%, an activity [10] of 34.5% and an activity [11] of 39.1%. For the same substance, the activity [12] was 62.2%, the activity [13] was 38% and the activity [14] was 37.5%. The activity [15] was 56.5% and the activity [16] was 68.6%.

— patent publication US20240309340
